Changes are numbered by the printed parent chain.
T1: major surface antigen 1 (SAG1) of Toxoplasma gondii (Toxoplasma gondii, UniProt P13664 48-336)
T1 chain: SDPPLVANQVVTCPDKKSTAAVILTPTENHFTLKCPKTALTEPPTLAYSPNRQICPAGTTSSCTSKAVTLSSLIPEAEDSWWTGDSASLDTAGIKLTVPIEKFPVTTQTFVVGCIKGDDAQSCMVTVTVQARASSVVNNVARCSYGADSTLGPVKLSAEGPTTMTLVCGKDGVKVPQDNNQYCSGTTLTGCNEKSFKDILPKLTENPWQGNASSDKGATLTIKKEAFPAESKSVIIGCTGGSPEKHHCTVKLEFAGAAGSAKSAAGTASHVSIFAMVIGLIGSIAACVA

B1: scFv S1D4 (scFv, V domains shown)
VH: QVQLQQSGAELVRPGTSVKISCKASGYTFTDYGMHWVKQRPGHGLEWIGIISTYSGDASYNQKFKGKATMTVDKSSSTAYMQLSSLTSEDSAVYYCARSSTWYYFDYWGQGTLVTVSA
VL: DIQMTQTPSSLSASLGDRVTISCRASQDISNYLNWYQQKPDGTVKLLIYYTSRLHSGVPSRFSGSGSGTDYSLTISNLEPEDIATYYCQQGNTLPYTFGGGTKLEIK
B2: scFv S1C4 (scFv, V domains shown)
VH: B1 VH with T16V, A24G, Q82E, S84A, S85R, V93I, L113T, V114L, A118S
VL: B1 VL
B3: scFv S1B4 (scFv, V domains shown)
VH: B1 VH with R40S, P41H, G42A, H43K, G44S
VL: B1 VL
B4: scFv S1A4 (scFv, V domains shown)
VH: QVQLQQSGAELVRPGVSVKISCKGSGYTFTDYGMHWVKQSHAKSLEWIGIISTYSGDASYNQKFKGKATMTVDKSSSTAYMELARLTSEDSAIYYCARSSTWYYFDYWGQGTTLTVSS
VL: B1 VL
B5: scFv S1A0 (scFv, V domains shown)
VH: B4 VH
VL: B1 VL with M4V, P8T, P80Q, Y87F

Molecular target: T1, major surface antigen 1 (SAG1) of …
Assay: SPR

Binder B1 has a Kd of 400 nM.

Molecular target: T1, major surface antigen 1 (SAG1) of …
Assay: SPR
Remark: another data set of the same source

Going from B2 to B3, the Kd rises from 61 nM to 323 nM (5.3-fold). The first binds more tightly here.

B4 gave a Kd of 236 nM.

Molecular target: T1, major surface antigen 1 (SAG1) of …
Assay: SPR; Langmuir 1:1 fit

Compared with B2, B1 is 6.6-fold higher in Kd: 61 nM for the first, 400 nM for the second.

B3 and B4 are within 1.5-fold of each other in Kd: 323 nM for the first, 236 nM for the second.

Molecular target: T1, major surface antigen 1 (SAG1) of …
Assay: SPR; two-state fit (kd1)

B5 and B2 are within 1.5-fold of each other in koff: 0.0137 s⁻¹ for the first, 0.0158 s⁻¹ for the second.

B1 and B3 are within 1.5-fold of each other in koff: 0.0183 s⁻¹ for the first, 0.0255 s⁻¹ for the second.

B4 gave a koff of 0.0142 s⁻¹.

Molecular target: T1, major surface antigen 1 (SAG1) of …
Assay: SPR; two-state fit (KDapp)

First: B5
Second: B2
The Kd of the first is 3.1-fold higher: 181 nM for the first, 59 nM for the second.

B1 and B3 are within 1.5-fold of each other in Kd: 360 nM for the first, 329 nM for the second.

B4 gave a Kd of 117 nM.
